Measured values reported in FireProtDB (doi:10.1016/j.jmb.2005.05.056).
Where “and” joins values, the source holds several entries; their conditions need not be identical. Equal entries are not always repeated.

B1: Small ribosomal subunit protein bS6, P23370 (parent)
chain: MRRYEVNIVLNPNLDQSQLALEKEIIQRALENYGARVEKVEELGLRRLAYPIAKDPQGYFLWYQVEMPEDRVNDLARELRIRDNVRRVMVVKSQEPFLANA

Variants of: B1
Conditions: Thermus thermophilus; pH 8; 25 °C; GdnHCl; Fluorescence; Tris-HCl 50 mM; reversible: No; structure 1RIS; whole UniProt chain shown

| Variant | ddG of mutation (higher = less stable) | denaturant m value | denaturant midpoint (higher = more stable) | unfolding free energy |
| --- | --- | --- | --- | --- |
| I8A | 2.9 kcal/mol and 4.4 kcal/mol | 2.78 kcal/mol/M and 2.44 kcal/mol/M and 2.83 kcal/mol/M | 1.82 M and 2.05 M and 2.35 M | 5.1 kcal/mol and 5 kcal/mol and 6.6 kcal/mol |
| I26A | 2.8 kcal/mol and 3 kcal/mol and 3.2 kcal/mol | 2.47 kcal/mol/M and 2.61 kcal/mol/M and 2.62 kcal/mol/M | 2.09 M and 2.46 M and 2.97 M | 5.2 kcal/mol and 6.4 kcal/mol and 7.8 kcal/mol |
| A35G | 0.6 kcal/mol and 0.7 kcal/mol | 2.91 kcal/mol/M and 2.95 kcal/mol/M | 3.03 M and 3.5 M | 8.8 kcal/mol and 10.3 kcal/mol |
| L75A | 0.9 kcal/mol and 0.8 kcal/mol and 0.7 kcal/mol | 3.13 kcal/mol/M and 2.95 kcal/mol/M and 3.19 kcal/mol/M | 2.71 M and 2.95 M and 3.24 M | 8.5 kcal/mol and 8.7 kcal/mol and 10.3 kcal/mol |
| V85A | 2.9 kcal/mol and 2.3 kcal/mol | 2.51 kcal/mol/M and 2.84 kcal/mol/M | 2.05 M and 2.54 M | 5.1 kcal/mol and 7.2 kcal/mol |
| V88A | 1.1 kcal/mol and 3 kcal/mol and 2 kcal/mol | 3.12 kcal/mol/M and 2.01 kcal/mol/M and 2.82 kcal/mol/M | 2.66 M and 2.9 M and 3.2 M | 8.3 kcal/mol and 6.5 kcal/mol and 9 kcal/mol |
| Y33A |  | 2.83 kcal/mol/M and 3.26 kcal/mol/M and 2.34 kcal/mol/M | 3.05 M and 3.65 M and 3.82 M | 8.6 kcal/mol and 11.9 kcal/mol and 8.9 kcal/mol |
| V65A |  | 2.61 kcal/mol/M and 2.77 kcal/mol/M and 2.84 kcal/mol/M |  |  |
| E22Q |  |  |  | 7.6 kcal/mol and 8.9 kcal/mol and 11.4 kcal/mol |
